Results as given in patent publication US7803904 (Takeda / Millennium, dated 2010).
One block for each binder: values may come before it.

Key:
[1] = biological target: T1, human α4β7 integrin (human, UniProt P13612 34-1032; P26010 20-798); test: cell adhesion, FIG. 4A
T1 construct: whole, on cells; also called α4β7 on RPMI 8866 cells; α4β7 on HuT 78 cells
Description: (§1) Where DATK 32 was used in a preincubation with a cell line, prior to the start of the assay, the supernatant or buffer present in the wells (containing the transfectants) was aspirated in order to obtain volume of 0.5 ml total for the adhesion assay.
(§2) Assays were fixed as described above. Plates were washed by gentle inversion in a large beaker of phosphate buffered saline (PBS), followed by inversion in a beaker of PBS with 1.5% gluteraldehyde for fixation for a minimum of 1 hour. Adhesion was assessed by counting both lymphocytes and CHO cells in a field at 20× magnification. For each assay, the number of lymphocytes bound per CHO/P cell was averaged as a minimum of four fields with standard error. Results in each case are from one of three experiments performed with similar results.
(§3) Murine MAdCAM-1 specifically binds lymphocytes expressing α4β7 (and not α4β1). […] Binding of these cell lines was compared to that of transiently transfected CHO/P cells expressing murine MAdCAM-1 and human VCAM-1.

[2] = biological target: T2, human α4β1 integrin (human, UniProt P13612 34-1032; P05556 21-798); test: functional adhesion assay, CHO/P transfectants, 4° C (FIG. 4B)
T2 construct: whole, on cells; Carried by Jurkat and Ramos cells (α4β1, not α4β7); also called α4β1 on Jurkat cells; α4β1 on Ramos cells
Description: as §1, §2, §3

[3] = biological target: T1, human α4β7 integrin; test: cell adhesion, FIG. 5 legend
Description: Clone pcD3huMAd4 (insert from clone 4) or pcD3huMAd20 (insert from clone 20) was transiently transfected into CHO/P cells.
Adhesion of the CHO/P transfectants to RPMI 8866 cells was blocked by preincubation with anti-α4β7 MAb ACT-1, but not by control IgG. […] To further characterize these distinct cDNAs, both clones were completely sequenced.

[4] = biological target: T3, murine α4β7 integrin (mouse, UniProt Q00651 41-1039; P26011 20-806); test: cell adhesion, CHO/P transient transfectants
T3 construct: whole, on cells; Carried by the murine T cell lymphoma TK1; also called α4β7 on TK1 cells

[5] = biological target: T2, human α4β1 integrin; test: cell adhesion assay, CHO/P transfectants
[6] = biological target: T2, human α4β1 integrin; test: cell adhesion, FIG. 4B legend
Description: as §1, §2, §3

[7] = biological target: T1, human α4β7 integrin; test: cell adhesion assay, CHO/P transfectants
[8] = biological target: T3, murine α4β7 integrin; test: cell adhesion, L1-2 stable transfectants

T2 sequence (P13612 34-1032, chain 1 of 2): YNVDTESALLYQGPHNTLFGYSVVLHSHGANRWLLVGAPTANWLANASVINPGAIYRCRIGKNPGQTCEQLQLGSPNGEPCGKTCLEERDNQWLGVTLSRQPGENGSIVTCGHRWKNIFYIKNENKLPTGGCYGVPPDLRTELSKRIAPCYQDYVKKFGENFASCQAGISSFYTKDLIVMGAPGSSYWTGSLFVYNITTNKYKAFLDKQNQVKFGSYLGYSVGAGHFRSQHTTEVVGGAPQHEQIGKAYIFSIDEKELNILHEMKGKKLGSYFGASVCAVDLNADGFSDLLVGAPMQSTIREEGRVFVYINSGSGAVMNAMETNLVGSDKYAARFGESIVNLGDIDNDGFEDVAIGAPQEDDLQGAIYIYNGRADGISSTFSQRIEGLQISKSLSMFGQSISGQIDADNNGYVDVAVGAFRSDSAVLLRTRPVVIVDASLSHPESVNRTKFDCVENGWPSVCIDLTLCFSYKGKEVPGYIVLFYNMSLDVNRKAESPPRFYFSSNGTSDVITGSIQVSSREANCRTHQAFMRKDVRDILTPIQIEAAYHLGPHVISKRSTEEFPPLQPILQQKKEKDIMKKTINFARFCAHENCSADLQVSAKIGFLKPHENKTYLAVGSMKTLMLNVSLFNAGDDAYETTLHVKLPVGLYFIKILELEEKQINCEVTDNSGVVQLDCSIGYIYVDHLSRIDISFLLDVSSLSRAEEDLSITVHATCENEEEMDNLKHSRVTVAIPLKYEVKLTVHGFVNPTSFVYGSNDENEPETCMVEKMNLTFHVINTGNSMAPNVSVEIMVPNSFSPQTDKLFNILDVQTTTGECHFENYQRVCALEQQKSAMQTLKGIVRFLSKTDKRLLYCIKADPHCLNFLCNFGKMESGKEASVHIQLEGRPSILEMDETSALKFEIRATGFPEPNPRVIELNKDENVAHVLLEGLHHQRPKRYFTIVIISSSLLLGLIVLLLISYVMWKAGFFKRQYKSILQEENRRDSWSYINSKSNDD
T2 sequence (P05556 21-798, chain 2 of 2): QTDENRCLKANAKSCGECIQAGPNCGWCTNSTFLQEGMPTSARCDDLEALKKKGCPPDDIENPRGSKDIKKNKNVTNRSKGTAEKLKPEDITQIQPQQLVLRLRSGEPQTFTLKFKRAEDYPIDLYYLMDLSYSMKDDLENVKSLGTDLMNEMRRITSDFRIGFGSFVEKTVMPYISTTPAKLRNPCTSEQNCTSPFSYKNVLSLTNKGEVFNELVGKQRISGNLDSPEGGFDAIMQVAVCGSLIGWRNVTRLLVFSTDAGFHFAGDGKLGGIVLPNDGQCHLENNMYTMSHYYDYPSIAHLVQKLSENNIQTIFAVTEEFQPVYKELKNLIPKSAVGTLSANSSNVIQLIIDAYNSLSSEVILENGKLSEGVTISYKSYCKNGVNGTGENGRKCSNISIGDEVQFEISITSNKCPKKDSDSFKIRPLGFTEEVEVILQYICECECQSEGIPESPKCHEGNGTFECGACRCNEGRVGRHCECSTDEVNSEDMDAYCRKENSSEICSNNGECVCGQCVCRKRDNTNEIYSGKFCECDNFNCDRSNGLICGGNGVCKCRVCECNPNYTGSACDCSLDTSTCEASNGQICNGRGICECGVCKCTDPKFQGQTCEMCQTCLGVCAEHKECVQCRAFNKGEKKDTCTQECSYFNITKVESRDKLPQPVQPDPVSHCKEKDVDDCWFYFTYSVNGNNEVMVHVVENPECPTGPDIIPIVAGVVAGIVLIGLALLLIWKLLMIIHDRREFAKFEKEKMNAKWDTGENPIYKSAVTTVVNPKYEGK
T1 sequence (P13612 34-1032, chain 1 of 2): as the sequence (P13612 34-1032, chain 1 of 2) above
T1 sequence (P26010 20-798, chain 2 of 2): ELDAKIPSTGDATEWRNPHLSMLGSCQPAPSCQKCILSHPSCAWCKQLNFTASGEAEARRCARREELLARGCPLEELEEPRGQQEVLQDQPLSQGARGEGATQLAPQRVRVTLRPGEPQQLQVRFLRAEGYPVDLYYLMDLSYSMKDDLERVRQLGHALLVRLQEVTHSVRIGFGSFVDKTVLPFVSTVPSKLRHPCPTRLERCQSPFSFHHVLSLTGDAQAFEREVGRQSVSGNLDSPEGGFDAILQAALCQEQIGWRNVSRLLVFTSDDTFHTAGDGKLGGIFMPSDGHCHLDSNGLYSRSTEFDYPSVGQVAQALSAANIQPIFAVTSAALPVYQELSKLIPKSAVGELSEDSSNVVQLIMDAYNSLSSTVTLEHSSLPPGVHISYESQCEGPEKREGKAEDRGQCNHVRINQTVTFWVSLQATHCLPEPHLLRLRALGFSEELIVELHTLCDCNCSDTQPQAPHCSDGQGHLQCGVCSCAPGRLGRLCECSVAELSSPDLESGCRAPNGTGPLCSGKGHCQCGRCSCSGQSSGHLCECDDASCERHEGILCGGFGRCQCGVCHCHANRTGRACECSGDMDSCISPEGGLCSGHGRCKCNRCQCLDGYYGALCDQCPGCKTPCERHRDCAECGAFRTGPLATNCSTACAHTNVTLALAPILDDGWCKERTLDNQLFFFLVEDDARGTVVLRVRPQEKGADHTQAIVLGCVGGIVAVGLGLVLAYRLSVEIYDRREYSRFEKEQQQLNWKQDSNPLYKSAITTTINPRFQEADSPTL
T3 sequence (Q00651 41-1039, chain 1 of 2): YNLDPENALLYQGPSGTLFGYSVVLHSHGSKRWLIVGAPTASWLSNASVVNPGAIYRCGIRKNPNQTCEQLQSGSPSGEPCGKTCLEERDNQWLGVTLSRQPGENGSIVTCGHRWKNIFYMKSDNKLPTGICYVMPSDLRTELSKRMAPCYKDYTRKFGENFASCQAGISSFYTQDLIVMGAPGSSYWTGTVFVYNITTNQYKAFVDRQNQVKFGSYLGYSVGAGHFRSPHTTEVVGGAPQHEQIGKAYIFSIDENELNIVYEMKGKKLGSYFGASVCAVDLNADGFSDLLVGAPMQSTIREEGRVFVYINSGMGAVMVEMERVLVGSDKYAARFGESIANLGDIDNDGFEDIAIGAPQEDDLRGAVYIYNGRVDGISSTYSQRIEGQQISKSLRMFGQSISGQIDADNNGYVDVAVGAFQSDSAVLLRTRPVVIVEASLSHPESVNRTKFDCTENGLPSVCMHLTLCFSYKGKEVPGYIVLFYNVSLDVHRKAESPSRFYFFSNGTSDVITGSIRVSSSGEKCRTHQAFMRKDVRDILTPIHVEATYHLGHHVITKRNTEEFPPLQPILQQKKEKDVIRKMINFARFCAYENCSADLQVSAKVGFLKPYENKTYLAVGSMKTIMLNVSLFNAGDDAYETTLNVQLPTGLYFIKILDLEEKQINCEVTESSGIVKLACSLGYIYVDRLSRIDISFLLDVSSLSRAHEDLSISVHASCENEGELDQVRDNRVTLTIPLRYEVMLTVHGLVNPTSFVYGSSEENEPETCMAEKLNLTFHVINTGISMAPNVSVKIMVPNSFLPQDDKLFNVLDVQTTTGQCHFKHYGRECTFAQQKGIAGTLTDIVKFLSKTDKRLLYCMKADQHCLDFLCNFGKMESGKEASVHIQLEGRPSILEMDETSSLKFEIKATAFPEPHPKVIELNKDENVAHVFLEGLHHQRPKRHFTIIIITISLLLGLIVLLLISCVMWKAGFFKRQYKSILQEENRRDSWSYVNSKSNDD
T3 sequence (P26011 20-806, chain 2 of 2): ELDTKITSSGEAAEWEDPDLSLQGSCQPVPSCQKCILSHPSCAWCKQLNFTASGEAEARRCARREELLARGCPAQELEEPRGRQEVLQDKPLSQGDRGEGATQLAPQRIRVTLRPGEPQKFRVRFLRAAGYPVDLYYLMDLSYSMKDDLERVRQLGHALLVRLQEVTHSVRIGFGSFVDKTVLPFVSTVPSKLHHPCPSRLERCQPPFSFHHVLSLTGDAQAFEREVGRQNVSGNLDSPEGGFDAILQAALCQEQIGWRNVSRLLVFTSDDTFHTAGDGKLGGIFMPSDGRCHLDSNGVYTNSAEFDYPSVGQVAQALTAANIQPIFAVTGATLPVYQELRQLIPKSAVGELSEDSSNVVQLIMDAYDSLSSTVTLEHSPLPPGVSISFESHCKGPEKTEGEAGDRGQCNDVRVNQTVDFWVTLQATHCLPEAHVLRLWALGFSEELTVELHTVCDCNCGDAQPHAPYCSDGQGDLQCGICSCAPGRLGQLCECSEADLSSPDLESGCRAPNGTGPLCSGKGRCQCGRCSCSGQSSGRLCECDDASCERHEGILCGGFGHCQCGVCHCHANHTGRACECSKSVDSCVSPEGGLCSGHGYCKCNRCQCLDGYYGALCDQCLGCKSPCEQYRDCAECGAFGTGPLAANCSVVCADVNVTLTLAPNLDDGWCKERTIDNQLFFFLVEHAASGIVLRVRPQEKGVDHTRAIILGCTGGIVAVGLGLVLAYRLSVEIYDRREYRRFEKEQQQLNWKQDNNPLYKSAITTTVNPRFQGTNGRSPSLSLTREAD

binding result [1]: binds
binding result [2]: no binding
B1: murine MAdCAM-1 (receptor, mouse, UniProt Q61826 22-405, looked up)
chain: QSFQVNPPESEVAVAMGTSLQITCSMSCDEGVARVHWRGLDTSLGSVQTLPGSSILSVRGMLSDTGTPVCVGSCGSRSFQHSVKILVYAFPDQLVVSPEFLVPGQDQVVSCTAHNIWPADPNSLSFALLLGEQRLEGAQALEPEQEEEIQEAEGTPLFRMTQRWRLPSLGTPAPPALHCQVTMQLPKLVLTHRKEIPVLQSQTSPKPPNTTSAEPYILTSSSTAEAVSTGLNITTLPSAPPYPKLSPRTLSSEGPCRPKIHQDLEAGWELLCEASCGPGVTVRWTLAPGDLATYHKREAGAQAWLSVLPPGPMVEGWFQCRQDPGGEVTNLYVPGQVTPNSSSTVVLWIGSLVLGLLALVFLAYRLWKCYRPGPRPDTSSCTHL
notes: whole, on cells; Transiently expressed on CHO/P cells; also called pCDMAD-7

binding result [3]: binds
binding result [4]: binds
B2: human MAdCAM-1 (cDNA clone 20) (receptor)
chain: QSLQVKPLQVEPPEPVVAVALGASRQLTCRLACADRGASVQWRGLDTSLGAVQSDTGRSVLTVRNASLSAAGTRVCVGSCGGRTFQHTVQLLVYAFPDQLTVSPAALVPGDPEVACTAHKVTPVDPNALSFSLLVGGQELEGAQALGPEVQEEEEEPQGDEDVLFRVTERWRLPPLGTPVPPALYCQATMRLPGLELSHRQAIPVLHSPTSPEPPDTTSPESPDTTSPESPDTTSQEPPDTTSPEPPDKTSPEPAPQQGSTHTPRSPGSTRTRRPEISQAGPTQGEVIPTGSSKPAGDQLPAALWTSSAVLGLLLLALPTYHLWKRCRHLAEDDTHPPASLRLLPQVSAWAGLRGTGQVGISPS
notes: Isoform with a shorter mucin domain, expressed on CHO/P cells; also called pcD3huMAd20

binding result [5]: no binding
B3: macaque MAdCAM-1 (cDNA clone 31D) (receptor)
chain: QSLQVKPLQVEPPEPVVAVALGASRQLTCRLDCADRGATVQWRGLDTSLGAVQSDAGRSVLTVRNASLSAAGTRVCVGSCGGRTFQHTVRLLVYAFPDQLTISPAALVPGDPEVACTAHKVTPVDPNALSFSLLLGDQELEGAQALGPEVEEEEEEPQEEEDVLFRVTERWRLPTLATPVLPALYCQATMRLPGLELSHRQAIPVLHGPTSREPPDTTSPEPRAATSPETTPQQGSTHSPRSPGSTRTCRPEISQAGPTQGEVIPTGSSKPTGDQLPAALWTSSAVLGLLLLALPTYHLWKRCRHLAEDGAHPPASLSSQPFPL
notes: Expressed on CHO/P or L1-2 cells; also called pcD3pMAd; pCD3PMad

binding result [6]: binds
binding result [7]: no binding
B4: seven domain human VCAM-1 (receptor, UniProt P19320 25-739, looked up)
chain: FKIETTPESRYLAQIGDSVSLTCSTTGCESPFFSWRTQIDSPLNGKVTNEGTTSTLTMNPVSFGNEHSYLCTATCESRKLEKGIQVEIYSFPKDPEIHLSGPLEAGKPITVKCSVADVYPFDRLEIDLLKGDHLMKSQEFLEDADRKSLETKSLEVTFTPVIEDIGKVLVCRAKLHIDEMDSVPTVRQAVKELQVYISPKNTVISVNPSTKLQEGGSVTMTCSSEGLPAPEIFWSKKLDNGNLQHLSGNATLTLIAMRMEDSGIYVCEGVNLIGKNRKEVELIVQEKPFTVEISPGPRIAAQIGDSVMLTCSVMGCESPSFSWRTQIDSPLSGKVRSEGTNSTLTLSPVSFENEHSYLCTVTCGHKKLEKGIQVELYSFPRDPEIEMSGGLVNGSSVTVSCKVPSVYPLDRLEIELLKGETILENIEFLEDTDMKSLENKSLEMTFIPTIEDTGKALVCQAKLHIDDMEFEPKQRQSTQTLYVNVAPRDTTVLVSPSSILEEGSSVNMTCLSQGFPAPKILWSRQLPNGELQPLSENATLTLISTKMEDSGVYLCEGINQAGRSRKEVELIIQVTPKDIKLTAFPSESVKEGDTVIISCTCGNVPETWIILKKKAETGDTVLKSIDGAYTIRKAQLKDAGVYECESKNKVGSQLRSLTLDVQGRENNKDYFSPELLVLYFASSLIIPAIGMIIYFARKANMKGSYSLVEAQKSKV
notes: whole, on cells; Transiently expressed on CHO/P cells; also called pCD3VCAM

binding result [3]: binds
binding result [8]: binds
binding result [2]: no binding
B5: human MAdCAM-1 (cDNA clone 4) (receptor)
chain: QSLQVKPLQVEPPEPVVAVALGASRQLTCRLACADRGASVQWRGLDTSLGAVQSDTGRSVLTVRNASLSAAGTRVCVGSCGGRTFQHTVQLLVYAFPDQLTVSPAALVPGDPEVACTAHKVTPVDPNALSFSLLVGGQELEGAQALGPEVQEEEEEPQGDEDVLFRVTERWRLPPLGTPVPPALYCQATMRLPGLELSHRQAIPVLHSPTSPEPPDTTSPEPPNTTSPESPDTTSPESPDTTSQEPPDTTSQEPPDTTSQEPPDTTSPEPPDKTSPEPAPQQGSTHTPRSPGSTRTRRPEISQAGPTQGEVIPTGSSKPAGDQLPAALWTSSAVLGLLLLALPTYHLWKRCRHLAEDDTHPPASLRLLPQVSAWAGLRGTGQVGISPS
notes: also called pcD3huMAd4; pCDhuMAd4
